Assay results as given in patent publication US7563582B2, “Process for screening chemical compounds for modulating the interaction of an EVH1 domain and a process for detecting said interaction” (sanofi-aventis Deutschland GmbH, priority 2000, dated 2009).

Experiments:
[1] = target: VASP/ActA interaction (Homo sapiens, UniProt P50552); settings: peptides with mutations in the FPPPP motif; cited from earlier work
[2] = target: T1, VASP/zyxin interaction (Homo sapiens, UniProt P50552); assay: VASP-zyxin solid-phase (DELFIA) assay, competition with peptides; type: binding; settings: competing zyxin peptides, FIG. 2
T1 construct: made in house; host or cells: VASP: insect cells (baculovirus); GST-zyxin(1-142): E. coli, given only for the homogeneous assay
Protocol: In the solid-phase assay, a binding partner (VASP or zyxin) was immobilized on the surface of a microtiter plate (MTP) (=coating). The unsaturated binding sites on the surface of the plastic were blocked, and the surface was then incubated with the respective other binding partners. After the incubation, excess unattached protein was removed in a washing step. Using suitable antibodies, it was now possible to detect and quantify the specifically bound protein. Here, it was possible to improve the signal-noise (S/N) ratio considerably by using lanthanide chelates as fluorescent labels for the antibodies and the measurement of the time-resolved fluorescence.
For the solid-phase assay, the best coating and incubation conditions were characterized. […] For detecting VASP specifically bound to the immobilized zyxin, it was possible to use monoclonal antibodies against VASP which can be detected using lanthanide-labeled antibodies against mouse IgGs (Wallac: DELFIA anti-mouse-Eu(N1)).
The current assay protocol comprised 5 incubation steps and 3 washing steps: • 1. Incubation of the empty MTPs with GST-zyxin(1-142) (coating); • 2. Blocking with BSA (bovine serum albumin); • 3. Washing with PBS (wash buffer); • 4. Incubation with VASP (ligand) (with and without test substances); • 5. Washing with PBS; • 6. Incubation with detection mix: α-VASP (monoclonal anti-VASP antibody)+α-mouse-Eu (europium-labeled anti-mouse antibodies from Wallac); • 7. Washing with DELFIA wash solution; and • 8. Release of the bound lanthanide complex and fluorimetric measurement.
The optimum conditions for coating (GST-zyxin(1-142)) and ligand incubation (VASP) were determined by titrating the reagents. […] The volume per well used depended on the selected MTP format (50 μl or 100 μl for 96-well plates, 20 μl for 384-well plates).
Thus far, there are no known non-peptidergic inhibitors of the VASP/zyxin interaction To simulate the action of potential inhibitors, inhibition experiments were carried out using competing peptides which contained the VASP binding motif of zyxin (FPPPP (SEQ. ID. NO. 1)). […]

VASP/ActA interaction, sequence (P50552 whole entry, species assumed): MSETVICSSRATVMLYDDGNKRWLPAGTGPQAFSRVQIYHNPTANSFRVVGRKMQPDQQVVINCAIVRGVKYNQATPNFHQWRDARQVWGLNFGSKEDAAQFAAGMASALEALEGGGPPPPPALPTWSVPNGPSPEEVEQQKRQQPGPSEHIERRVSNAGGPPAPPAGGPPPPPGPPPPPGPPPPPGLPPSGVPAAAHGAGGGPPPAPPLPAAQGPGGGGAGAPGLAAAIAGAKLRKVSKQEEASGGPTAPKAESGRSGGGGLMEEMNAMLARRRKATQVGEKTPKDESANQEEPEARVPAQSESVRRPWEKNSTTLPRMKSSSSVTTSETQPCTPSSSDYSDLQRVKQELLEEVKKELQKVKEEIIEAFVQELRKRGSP
T1 sequence (P50552 whole entry): as the sequence (P50552 whole entry, species assumed) above

| Substance | inhibition of the VASP/ActA interaction (relative to wild type sequence FPPPP) [1] | apparent inhibition constants of the peptides (rank order of inhibition) [2] |
| --- | --- | --- |
| APPPP: competing zyxin peptide containing the mutated VASP binding motif APPPP | considerably worse inhibition | WPPPP (SEQ. ID. NO. 2)>FPPPP (SEQ. ID. NO. 1)>APPPP (SEQ. ID. NO. 3) |
| WPPPP: competing zyxin peptide containing the mutated VASP binding motif WPPPP | even better inhibition | WPPPP (SEQ. ID. NO. 2)>FPPPP (SEQ. ID. NO. 1)>APPPP (SEQ. ID. NO. 3) |
| FPPPP: competing peptide containing the wild type VASP binding motif of zyxin, FPPPP | WPPPP (SEQ. ID. NO. 2)>FPPPP (SEQ. ID. NO. 1)>APPPP (SEQ. ID. NO. 3) | WPPPP (SEQ. ID. NO. 2)>FPPPP (SEQ. ID. NO. 1)>APPPP (SEQ. ID. NO. 3) |
